According to the supplement of paper PMC10126150:
± gives the standard deviation of the averaged measurements.

Test system: ATP
Test: switch fluorescence ratio, 500 uM ATP over buffer (Cy3 cluster intensity, sum of 5 cycles each) (fold (ratio)); higher = stronger signal-on switching upon ATP binding; sequences stand for … in TCGTCGGCAGCGTCAGATGTGTATAAGAGACAGTTTTTTTTTTTTTTTTTTTTTTTTT…TC
Conditions: aptamer strand: ATP DNA aptamer (quencher-CACCTGGGGGAGTATTGCGGAGGAAGG + anchor), 100 nM annealed; ATP concentration: 500 uM
Outline: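 Cy3-labelled switching-strand clusters on a modified Illumina MiSeq flow-cell were annealed to 100 nM quencher-labelled ATP aptamer and imaged first in selection buffer, then after 15 min with 500 uM ATP at 22 °C. NaOH stripping and re-annealing separated each of five buffer/ATP cycles, and clusters outside 100-1000 RFU were excluded. The fluorescence ratio sums target-cycle Cy3 intensity over buffer-cycle Cy3 intensity per cluster and averages it per switch-domain sequence.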
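Also: ATP exposure 15 min at 22 °C before imaging.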

Sequence	switch fluorescence ratio
CGGTGCGACG	0.958 ± 0.041
CGGTGCTATG	1 ± 0.015
CGGTGGCTGG	0.972 ± 0.036
CGGTGGCTTC	1.003 ± 0.0026
CGGTGGGTGC	0.997 ± 0.038
CGGTGGTGAT	1.009 ± 0.0059
CGGTGGTTGG	1 ± 0.029
CGGTGTAGAG	0.996 ± 0.0093
CGGTGTCTCA	1.0117 ± 0.00057
CGGTGTGGGG	1.01 ± 0.032
CGGTTAGACG	0.977 ± 0.008
CGGTTAGGAT	0.994 ± 0.0078
CGGTTATGTA	0.989 ± 0.034
CGGTTATTAG	0.9897 ± 0.0066
CGGTTCGGGT	0.993 ± 0.013
CGGTTGATCG	0.918 ± 0.036
CGGTTGCTTA	0.987 ± 0.012
CGGTTGGGAG	1.019 ± 0.0064
CGGTTGGTAT	0.969 ± 0.051
CGGTTGTAAA	1.02 ± 0.013
CGGTTGTAAT	1.03 ± 0.041
CGGTTGTTTG	0.974 ± 0.015
CGGTTTAGGG	0.986 ± 0.026
CGGTTTATAT	0.99 ± 0.013
CGGTTTCAAG	0.972 ± 0.042

Sequence	switch fluorescence ratio
CGGTTTCCTC	1.11 ± 0.074
CGGTTTGGCT	1.08 ± 0.12
CGGTTTTAAT	0.99589 ± 0.00077
CGGTTTTAGG	1.0066 ± 0.00065
CGGTTTTTAC	1.08 ± 0.041
CGGTTTTTTA	0.964 ± 0.025
CGTAAACTTG	1.02 ± 0.023
CGTAAATATA	1.03 ± 0.015
CGTAAGAGCT	1 ± 0.016
CGTAATCATC	1.13 ± 0.023
CGTAATTTCA	1.02 ± 0.013
CGTACACGTT	1.02 ± 0.051
CGTACATTTA	1.03 ± 0.051
CGTACCAACC	1.2 ± 0.029
CGTACCTGCG	1.06 ± 0.042
CGTACGGACC	1.26 ± 0.046
CGTACGGGTT	0.9959 ± 0.0039
CGTACTAAAA	1.06 ± 0.036
CGTAGAATGC	1.44 ± 0.082
CGTAGAGCGG	1 ± 0.074
CGTAGGATTG	1.02 ± 0.03
CGTAGGGCAG	0.991 ± 0.049
CGTAGGGGGG	0.986 ± 0.03
CGTAGGGGTG	0.969 ± 0.014
CGTAGGGTTG	0.974 ± 0.057

Sequence	switch fluorescence ratio
CGTAGTAGTG	0.993 ± 0.027
CGTAGTTCGA	1.02 ± 0.018
CGTATAACTC	1.11 ± 0.014
CGTATGCCGA	0.961 ± 0.016
CGTATGGATA	0.998 ± 0.028
CGTATGTTGG	1.04 ± 0.012
CGTATTCATA	0.977 ± 0.037
CGTATTTAGA	0.99 ± 0.064
CGTATTTCTG	0.938 ± 0.072
CGTATTTTTA	1 ± 0.089
CGTCAAGGTG	1.42 ± 0.24
CGTCAGCACT	1.79 ± 0.04
CGTCATTAAA	0.984 ± 0.023
CGTCATTCGC	1.05 ± 0.16
CGTCATTTAT	1 ± 0.06
CGTCCATATG	1.016 ± 0.0089
CGTCCTGGCT	1.02 ± 0.07
CGTCCTGGGT	0.995 ± 0.011
CGTCGATAAT	1.03 ± 0.035
CGTCGGCGCC	1.09 ± 0.12
CGTCGGTTAG	1.01 ± 0.015
CGTCGTAGTG	0.989 ± 0.016
CGTCTTCCTG	1 ± 0.056
CGTCTTGCCC	0.9853 ± 0.0052
CGTGAAAGCA	1.02 ± 0.067

Sequence	switch fluorescence ratio
CGTGAAAGTG	0.991 ± 0.019
CGTGAAATCG	1.02 ± 0.019
CGTGAAATGT	0.9863 ± 0.0075
CGTGAAGATG	0.9674 ± 0.0068
CGTGAAGGTG	1.24 ± 0.074
CGTGACCTTT	1.02 ± 0.048
CGTGACGGTT	1.03 ± 0.062
CGTGACTCTA	1.03 ± 0.046
CGTGACTGGT	0.9683 ± 0.005
CGTGAGAGCA	1.01 ± 0.035
CGTGAGCTAG	1.03 ± 0.029
CGTGAGCTTG	1.0004 ± 4.9e-05
CGTGATGTTT	1 ± 0.047
CGTGATTATA	0.992 ± 0.0072
CGTGATTCGC	1.018 ± 0.0023
CGTGCAAAGG	1.05 ± 0.013
CGTGCCATAG	1 ± 0.015
CGTGCCCTGC	1.06 ± 0.028
CGTGCGCATA	3.77 ± 1.4
CGTGCGTCGG	1.01 ± 0.017
CGTGCGTGCT	1.01 ± 0.023
CGTGCTGGCA	1.019 ± 0.0064
CGTGCTGGTT	1.01 ± 0.061
CGTGCTGTA	1.046 ± 0.0054
CGTGGAGCGA	1.04 ± 0.02
